Settings in all cases: both partners purified
Experiment [1] deals with T1, MukB Hinge, purified (36 kDa) (E. coli, UniProt P22523 566-863).
T1 construct: MukB, E. coli, residues 566-863 (Hinge construct); printed size 36 kDa; details of purification are in Supplementary Methods; source: E. coli C3013I, pET vector, purified
T1 sequence (looked up): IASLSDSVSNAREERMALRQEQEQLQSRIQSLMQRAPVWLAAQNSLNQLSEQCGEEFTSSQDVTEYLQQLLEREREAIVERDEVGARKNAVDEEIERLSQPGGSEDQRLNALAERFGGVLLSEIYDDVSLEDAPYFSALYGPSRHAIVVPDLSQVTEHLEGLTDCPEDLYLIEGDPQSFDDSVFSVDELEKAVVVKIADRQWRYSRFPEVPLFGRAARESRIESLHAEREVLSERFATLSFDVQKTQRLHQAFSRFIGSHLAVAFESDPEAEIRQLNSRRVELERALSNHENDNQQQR
The experiment is described as follows: SEC; Superose 6 10/300 GL; 50 mM HEPES pH 7.5, 100 mM NaCl, 1 mM DTT, 1 mM EDTA, 5 mM MgCl2; MatPΔC18 (73 μM) and/or Hinge (15 μM); fractions on SDS-PAGE. Background: SEC sorts molecules by how far they enter the pores of the column.

For a further experiment, the target named is T2, MukB–Flag (E. coli, UniProt P22523 1-1486).
T2 construct: MukB, E. coli; printed MW with Flag 171.7 kDa; The printed mass fits the whole protein; also called FLAG-tagged MukB
T2 sequence (looked up): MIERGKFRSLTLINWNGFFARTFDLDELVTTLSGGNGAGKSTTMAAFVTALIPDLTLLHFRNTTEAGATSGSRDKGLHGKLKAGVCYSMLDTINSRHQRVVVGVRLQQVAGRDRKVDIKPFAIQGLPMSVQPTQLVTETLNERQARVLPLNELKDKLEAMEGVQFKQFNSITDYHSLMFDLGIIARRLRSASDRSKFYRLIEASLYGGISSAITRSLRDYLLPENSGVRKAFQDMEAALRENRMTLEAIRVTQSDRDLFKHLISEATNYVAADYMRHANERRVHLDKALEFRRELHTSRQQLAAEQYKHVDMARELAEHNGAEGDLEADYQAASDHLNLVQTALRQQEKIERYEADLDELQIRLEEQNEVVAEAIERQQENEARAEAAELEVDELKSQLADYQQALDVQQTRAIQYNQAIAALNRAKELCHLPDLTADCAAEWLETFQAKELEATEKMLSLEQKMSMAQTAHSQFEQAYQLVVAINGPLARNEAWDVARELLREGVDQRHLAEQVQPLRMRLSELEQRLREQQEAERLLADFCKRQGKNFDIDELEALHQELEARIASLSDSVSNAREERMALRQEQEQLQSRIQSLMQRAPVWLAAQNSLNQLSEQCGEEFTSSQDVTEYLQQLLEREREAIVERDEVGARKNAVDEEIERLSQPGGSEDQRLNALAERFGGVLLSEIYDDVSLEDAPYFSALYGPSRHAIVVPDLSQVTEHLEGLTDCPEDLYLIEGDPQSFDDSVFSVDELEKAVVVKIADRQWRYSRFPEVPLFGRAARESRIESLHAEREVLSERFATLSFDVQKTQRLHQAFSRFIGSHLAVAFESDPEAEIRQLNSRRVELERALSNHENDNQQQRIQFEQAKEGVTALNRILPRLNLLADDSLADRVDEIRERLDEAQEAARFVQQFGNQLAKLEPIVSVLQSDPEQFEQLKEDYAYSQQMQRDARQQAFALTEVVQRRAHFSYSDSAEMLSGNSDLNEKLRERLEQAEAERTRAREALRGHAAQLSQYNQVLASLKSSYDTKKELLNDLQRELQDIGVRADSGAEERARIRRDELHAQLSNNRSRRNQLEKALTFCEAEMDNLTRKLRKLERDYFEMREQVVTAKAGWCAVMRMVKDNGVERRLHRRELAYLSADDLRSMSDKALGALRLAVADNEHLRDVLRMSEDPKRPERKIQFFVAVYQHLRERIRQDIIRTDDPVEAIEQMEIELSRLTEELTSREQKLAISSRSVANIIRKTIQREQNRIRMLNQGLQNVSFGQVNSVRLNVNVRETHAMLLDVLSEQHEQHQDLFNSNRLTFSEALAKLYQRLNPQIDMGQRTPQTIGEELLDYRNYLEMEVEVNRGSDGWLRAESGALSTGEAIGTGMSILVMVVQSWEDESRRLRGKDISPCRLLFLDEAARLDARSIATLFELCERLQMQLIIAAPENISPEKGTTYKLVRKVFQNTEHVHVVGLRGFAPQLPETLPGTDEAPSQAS
The experiment is described as follows: co-IP; MukB–Flag or Hinge–Flag from cell lysate bound to anti-Flag M2 Affinity gel and washed; purified MatPΔC18-6×His added in 50 mM HEPES pH 7.5, 100 mM NaCl, 45 min, 4 °C; SDS-PAGE.

For the next experiment, the target named is T3, Hinge–Flag (E. coli, UniProt P22523 566-863).
T3 construct: MukB, E. coli, residues 566-863 (Hinge construct); printed MW with Flag 35.2 kDa; Hinge proteins gave 2 bands on SDS-PAGE, maybe because of proteolytic cleavage; also called FLAG-tagged Hinge
T3 sequence (looked up): T1 sequence (looked up)
The description is as above.

For the next experiment, the target named is T4, MukB-6×His, purified (E. coli, UniProt P22523 1-1486).
T4 construct: MukB, E. coli; printed MW with 6×His 172.6 kDa; The printed mass fits the whole protein; source: E. coli C3013I, pET vector, purified
T4 sequence (looked up): T2 sequence (looked up)
The experiment is described as follows: co-IP; MatPΔC18–Flag from cell lysate bound to anti-Flag M2 Affinity gel and washed; purified MukB, MukE, MukF added as indicated in 50 mM HEPES pH 7.5, 100 mM NaCl, 45 min, 4 °C; SDS-PAGE.

B1: MatPΔC18-6×His, purified (domain or fragment, E. coli, UniProt P0A8N0 1-132, looked up)
chain: MKYQQLENLESGWKWKYLVKKHREGELITRYIEASAAQEAVDVLLSLENEPVLVNGWIDKHMNPELVNRMKQTIRARRKRHFNAEHQHTRKKSIDLEFIVWQRLAGLAQRRGKTLSETIVQLIEDAENKEKY
notes: MatP, E. coli, truncated by its 18 C-terminal amino-acid residues; printed MW with 6×His 18.3 kDa; source: E. coli C3013I, pET vector, purified
On to B1, for which the binding result (in experiment [1]; with MukB–Flag; in the experiment with Hinge–Flag) was “binds” in each case.

B2: MatPΔC18–Flag (domain or fragment, E. coli, UniProt P0A8N0 1-132, looked up)
chain: B1 chain
notes: MatP, E. coli, truncated by its 18 C-terminal amino-acid residues; printed MW with Flag 16.9 kDa; also called FLAG-tagged MatPΔC18
With B2, the binding result with MukB-6×His, purified is listed as “binds”.

These data come from article PMC4738335, “MatP regulates the coordinated action of topoisomerase IV and MukBEF in chromosome segregation” (Nature Communications, 2016).
